These results are taken from IntAct's records for PubMed 18571423.

The target in the assay is rbbp7_human RBBP7 (UniProt Q16576).
rbbp7_human RBBP7, sequence (Q16576 whole entry): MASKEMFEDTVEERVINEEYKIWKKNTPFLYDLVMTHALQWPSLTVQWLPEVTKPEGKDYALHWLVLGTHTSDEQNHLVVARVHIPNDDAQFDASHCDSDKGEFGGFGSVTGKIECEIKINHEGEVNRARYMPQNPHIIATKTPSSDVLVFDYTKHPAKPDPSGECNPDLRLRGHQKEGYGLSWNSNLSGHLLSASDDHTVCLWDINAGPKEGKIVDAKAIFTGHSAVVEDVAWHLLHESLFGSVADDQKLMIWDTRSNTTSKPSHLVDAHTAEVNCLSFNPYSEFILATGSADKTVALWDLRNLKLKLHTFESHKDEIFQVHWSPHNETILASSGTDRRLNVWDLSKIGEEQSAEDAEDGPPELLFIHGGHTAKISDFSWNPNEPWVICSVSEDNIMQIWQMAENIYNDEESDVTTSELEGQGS
In the case of “Histone H4 (Homo sapiens) (from UniProt P62805) I35T;R36S;L38D”, the “effect of a mutation on the interaction” value is on record as “disrupting interaction”.

On to “Histone H4 (Homo sapiens) (from UniProt P62805) L38D;R40V;R41N”, for which the “effect of a mutation on the interaction” value was “disrupting interaction”.

For “Histone H4 (Homo sapiens) (from UniProt P62805) R40V;R41N”, the “effect of a mutation on the interaction” value is given as “disrupting interaction”.
